Data published in US20230279130A1.

Experiments:
[1] = biological target: full length human CCR8 (hCCR8) (human) (UniProt P51685); assay: flow cytometry, CD4+Foxp3+ gated cells of resting human PBMC, anti-human IgG Fc against Foxp3
[2] = biological target: full length human CCR8 (hCCR8) (human) (UniProt P51685); assay: flow cytometry, CD4+Foxp3+ gated cells of human PBMC stimulated with IL-2 (200 U/ml) for 2 days, anti-human IgG Fc against Foxp3
[3] = biological target: full length human CCR8 (hCCR8) (human) (UniProt P51685); assay: flow cytometry, CD4+Foxp3+ gated cells of OKT-3 stimulated human PBMC, anti-human IgG APC against Foxp3 PE

| percent of CD4+Foxp3+ cells in the gate 'Foxp3 ahigG Subset' [1] [%] | percent of CD4+Foxp3+ cells in the gate 'Foxp3 ahigG Subset' [2] [%] | percent of CD4+Foxp3+ cells stained (upper right quadrant) [3] [%] | Substance |
| --- | --- | --- | --- |
| 0.11 | 0.36 | – | Anti RSV (antibody) |
| – | – | 6.23 | anti-DNP (dinitrophenyl) control antibody |
